Measurements reported in PMC8092224.

Molecular target: H. pylori-bullfrog recombinant ferritin (ferritin nanoparticle) (bullfrog (Rana catesbeiana) | Helicobacter pylori)
Assay: SEC; concentrated supernatant (100-kDa MWCO TFF) on Superdex 200 Increase 10/300 GL, degassed PBS, 0.4 ml/min; size from LMW/HMW calibration standards; self-assembly of the monomer into the nanoparticle

H. pylori-bullfrog recombinant ferritin (ferritin nanoparticle)
stoichiometry N: 24
